For assay [1], the target named is S. cerevisiae Ire1 kinase/RNase domains (WT Sc Ire1-KR) (S. cerevisiae). The assay is described as follows: AUC; sedimentation equilibrium, 20°C; 2.5, 5 and 10 μM protein at 7,000, 10,000 and 14,000 rpm; 50 mM Tris/HCl pH 7.5, 200 mM NaCl, 2 mM Mg(OAc)2, 2 mM TCEP; global fit to a self-association equilibrium model; monomer-dimer equilibrium constant.
Assay [2] addresses Sc Ire1-KR(K992R,Y1059D) (S. cerevisiae). As to the kind of experiment: cross-linking; 12.5 μM Ire1-KR, 2 mM ADP, 1 mM BS3 (bissulfosuccinimidyl suberate), 2 h on ice; 50 mM HEPES, 200 mM NaCl, 2 mM Mg(OAc)2, 2 mM TCEP, 10% glycerol; SDS-PAGE, coomassie blue or SYPRO Ruby.
Assay [3] addresses Sc Ire1-KR(K992D,Y1059R) (S. cerevisiae). The description is as above.
Assay [4] has the same target. The assay is described as follows: AUC; sedimentation equilibrium, 20°C; 2.5, 5 and 10 μM protein at 7,000, 10,000 and 14,000 rpm; 50 mM Tris/HCl pH 7.5, 200 mM NaCl, 2 mM Mg(OAc)2, 2 mM TCEP; global fit to a self-association equilibrium model; monomer-dimer equilibrium constant.

Values joined by “and” are separate entries in the source; they are usually repeats but may differ in a detail not shown here. Identical values can stand only once.

The substance “S. cerevisiae Ire1 kinase/RNase domains (WT Sc Ire1-KR) (domain or fragment)” had a Kd in assay [1] of 57 µM.
Turning to “Sc Ire1-KR(K992R,Y1059D) (domain or fragment)”, the stoichiometry N in assay [2] stood at 2.
As to “Sc Ire1-KR(K992D,Y1059R) (domain or fragment)”, in assay [3], the stoichiometry N is 2 and 4. The substance also registered a Kd in assay [4] of 0.98 µM.

The values are drawn from PMC8104961.
